Assay results: patent publication US20240270818A1 (PETMEDIX, published 2024)
Where a chain is given by its changes, count along the chain named. In names and notes the source's numbering stands.

B1: Bedinvetmab (antibody, INN chains, looked up, V domains shown)
VH: EVQLVESGGDLVKPGGSLRLSCVASGFTFSSHGMHWVRQSPGKGLQWVAVINSGGSSTYYTDAVKGRFTISRDNAKNTVYLQMNSLRAEDTAMYYCAKESVGGWEQLVGPHFDYWGQGTLVIVSS
VL: QSVLTQPTSVSGSLGQRVTISCSGSTNNIGILGASWYQLFPGKAPKLLVYGNGNRPSGVPDRFSGADSGDSVTLTITGLQAEDEADYYCQSFDTTLGAHVFGGGTHLTVL
B2: PetML 119 (canine p75NTR ECD-canine IgGB wt Fc protein fusion) (Fc fusion)
chain: KEACPTGLYTHSGECCKACNLGEGVAQPCGANQTVCEPCLDSVTFSDVVSATEPCKPCTECVGLQSMSAPCVEADDAVCRCAYGYYQDETTGRCEACRVCEAGSGLVFSCQDRQNTVCEECPDGTYSDEANHVDPCLPCTVCEDTERQLRECTRWADAECEEIPGGGGRENGRVPRPPDCPKCPAPEMLGGPSVFIFPPKPKDTLLIARTPEVTCVVVDLDPEDPEVQISWFVDGKQMQTAKTQPREEQFNGTYRVVSVLPIGHQDWLKGKQFTCKVNNKALPSPIERTISKARGQAHQPSVYVLPPSREELSKNTVSLTCLIKDFFPPDIDVEWQSNGQQEPESKYRTTPPQLDEDGSYFLYSKLSVDKSRWQRGDTFICAVMHEALHNHYTQKSLSHSPGK
notes: The end, 422, is my own count; also called WT molecule
B3: PetML 119-S109Y (canine p75NTR ECD S109Y-canine IgGB wt Fc) (Fc fusion)
chain: KEACPTGLYTHSGECCKACNLGEGVAQPCGANQTVCEPCLDSVTFSDVVSATEPCKPCTECVGLQSMSAPCVEADDAVCRCAYGYYQDETTGRCEACRVCEAGSGLVFYCQDRQNTVCEECPDGTYSDEANHVDPCLPCTVCEDTERQLRECTRWADAECEEIPGRGGGGRENGRVPRPPDCPKCPAPEMLGGPSVFIFPPKPKDTLLIARTPEVTCVVVDLDPEDPEVQISWFVDGKQMQTAKTQPREEQFNGTYRVVSVLPIGHQDWLKGKQFTCKVNNKALPSPIERTISKARGQAHQPSVYVLPPSREELSKNTVSLTCLIKDFFPPDIDVEWQSNGQQEPESKYRTTPPQLDEDGSYFLYSKLSVDKSRWQRGDTFICAVMHEALHNHYTQKSLSHSPGK
notes: Signal peptide (first 19 residues) left out as for m1
B4: PetML 119-S109H (canine p75NTR ECD S109H-canine IgGB wt Fc) (Fc fusion)
chain: B3 chain with Y109H
notes: Signal peptide left out as for m1; If the listing holds it too, the entry is 425 residues long
B5: PetML 119-V133R (canine p75NTR ECD V133R-canine IgGB wt Fc) (Fc fusion)
chain: B3 chain with Y109S, V133R
notes: as for B3
B6: PetML 119-E75T (canine p75NTR ECD E75T-canine IgGB wt Fc) (Fc fusion)
chain: B3 chain with D75T, Y109S
notes: as for B3
B7: PetML 119-D134L (canine p75NTR ECD D134L-canine IgGB wt Fc) (Fc fusion)
chain: B3 chain with Y109S, D134L
notes: as for B3

What follows are binders tested against NGF (species not stated at the place) (Homo sapiens (Human)) (UniProt P01138) (assay: cell-based or functional assay).
Binder B1 has a Bottom (%), PathHunter TrkA activation assay of 5.35%, a Top (%), PathHunter TrkA activation assay of 123% and a TrkA inhibition, PathHunter luminescence of 100%.

Each binder was assayed against T1, rat Nerve Growth Factor (rat, UniProt P25427 122-241, limits assumed) (assay: SPR (Biacore 8K), fusion captured on Protein A chip).
T1 construct: Bought recombinant protein; also called rNGF; rat NGF
T1 sequence (P25427 122-241 limits assumed): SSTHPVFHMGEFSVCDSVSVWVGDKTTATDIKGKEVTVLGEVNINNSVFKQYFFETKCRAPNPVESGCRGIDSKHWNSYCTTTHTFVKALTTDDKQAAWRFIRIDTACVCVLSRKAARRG
Protocol: (§1) Binding affinity of fusion proteins to human and rat NGF was assessed using Biacore 8K (Cytiva). Briefly, Protein A Sensor Chip (Cytiva) was docked into Biacore 8K, equilibrated for 30′ at RT and then Running Buffer (10 mM HEPES pH7.4 150 mM NaCl 3 mM EDTA and 0.005% Tween20) was applied to the SPR chip surface.
(§2) These were immobilised using 90 see association at 10 uL/min as capturing step, followed by injection of running buffer to remove any unbound product.
(§3) Kinetics were assessed using multi-cycle kinetics with capture step method (30 see association-300 see dissociation) followed by regeneration step (0.1M Glycine pH2.2 contact time 60 see FR 30 uL/min). Kinetics quantification have been performed using Biacore Insight following standard analyses methods.
B2: binds.
B3: binds.
B4: binds.
B5: binds.

These binders were tested against T2, human Nerve Growth Factor (human, UniProt P01138 122-241) in the same assay as above.
T2 construct: Bought recombinant protein; also called hNGF; human NGF
T2 sequence (P01138 122-241 limits assumed): as the sequence (P25427 122-241 limits assumed) above, with T3S, V6I, M9R, T37M, A60D, E65D, T92M, D94G, A117V, G120A counted along it
Protocol: as §1, §2, §3
With B6 the “fold reduced affinity relative to PetML 119 wt” value was 40 fold.
With B7 the “fold reduced affinity relative to PetML 119 wt” value was 20 fold.

What follows are binders tested against T2, human Nerve Growth Factor (assay: SPR (Biacore 8K), fusion captured on Protein A chip, hNGF as analyte, multi-cycle kinetics).
Protocol: as §1, §2, §3
B2 was tested, and the Kd was 0.309 nM.
In the case of B3, the Kd is reported as 0.225 nM.
For B6, the Kd was 12.4 nM.
B7 was tested, and the Kd was 6.8 nM.
In the case of B4, the Kd is reported as 0.267 nM.
In the case of B5, the Kd is reported as 0.346 nM.

Molecular target: NGF (species not stated at the place) (Homo sapiens (Human)) (UniProt P01138)
Experiment: cell-based or functional assay
Remark: another data set of the same source
For B1, the Bottom (%), PathHunter TrkA activation assay was 2.11% and the Top (%), PathHunter TrkA activation assay was 93.5%.

Each binder was assayed against NGF (species not stated at the place) (Homo sapiens (Human), UniProt P01138 122-241) (assay: cell-based or functional assay).
In the case of B2, the “Bottom (%), PathHunter TrkA activation assay” value (from here on “Bottom (%)”) is reported as 9.5% and the “IC50 (nM), PathHunter TrkA activation assay” value is reported as 8.04 nM.
B3 was tested, and the “Bottom (%)” value was 7.79%, the “IC50 (nM), PathHunter TrkA activation assay” value was 2.15 nM and the “Top (%), PathHunter TrkA activation assay” value (from here on “Top (%)”) was 87.3%.
B6 was tested, and the “Bottom (%)” value was 44.5%, the “IC50 (nM), PathHunter TrkA activation assay” value was 82.6 nM and the “Top (%)” value was 72.6%.
For B7, the “Bottom (%)” value was 53.7%, the “IC50 (nM), PathHunter TrkA activation assay” value was 20.8 nM and the “Top (%)” value was 82.7%.
B4 was tested, and the “Bottom (%)” value was 10.3%, the “IC50 (nM), PathHunter TrkA activation assay” value was 2.2 nM and the “Top (%)” value was 48.3%.
B5 was tested, and the “Bottom (%)” value was 14.3%, the “IC50 (nM), PathHunter TrkA activation assay” value was 2.56 nM and the “Top (%)” value was 49.3%.

Each binder was assayed against T2, human Nerve Growth Factor (assay: cell-based or functional assay).
With B2 the “IC50 (nM), inhibition of TF-1 cell proliferation” value (from here on “IC50 (nM), inhibition”) was 4.46 nM and the “ICMAX (%), inhibition of TF-1 cell proliferation” value (“ICMAX (%), inhibition” below) was 73.1%.
B3 was tested, and the “IC50 (nM), inhibition” value was 2.15 nM and the “ICMAX (%), inhibition” value was 93.5%.
For B6, the “IC50 (nM), inhibition” value was 18.2 nM and the “ICMAX (%), inhibition” value was 72.5%.
For B7, the “IC50 (nM), inhibition” value was 329 nM and the “ICMAX (%), inhibition” value was 70.5%.
In the case of B4, the “IC50 (nM), inhibition” value is reported as 0.17 nM and the “ICMAX (%), inhibition” value is reported as 88.5%.
B5 was tested, and the “IC50 (nM), inhibition” value was 5.06 nM and the “ICMAX (%), inhibition” value was 80.5%.
